# According to patent US20200270318A1:
# No end group written: not given here.
# Target: human PAC1 receptor with 3 hemagglutinin (HA) tags, expressed in Chinese Hamster Ovary (CHO) cells (human), P41586
# Experiment: cell-based or functional assay
# Sequence of human PAC1 receptor with 3 hemagglutinin (HA) tags, expressed in Chinese Hamster Ovary (CHO) cells (human), P41586 (P41586 21-468): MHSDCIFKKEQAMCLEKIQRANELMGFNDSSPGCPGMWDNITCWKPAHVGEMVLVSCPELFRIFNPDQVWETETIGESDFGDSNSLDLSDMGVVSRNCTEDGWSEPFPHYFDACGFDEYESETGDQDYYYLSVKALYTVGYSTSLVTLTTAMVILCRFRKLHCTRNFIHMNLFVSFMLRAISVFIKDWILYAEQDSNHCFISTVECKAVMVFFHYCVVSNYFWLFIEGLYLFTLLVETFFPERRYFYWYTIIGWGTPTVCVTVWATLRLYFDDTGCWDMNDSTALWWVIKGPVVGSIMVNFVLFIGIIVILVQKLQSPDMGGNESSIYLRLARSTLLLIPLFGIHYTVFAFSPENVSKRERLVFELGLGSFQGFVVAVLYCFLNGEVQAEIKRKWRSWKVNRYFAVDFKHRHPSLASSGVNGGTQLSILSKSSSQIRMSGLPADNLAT
Binder,"EMax (%), calcium flux (FLIPR), agonist mode, PAC1-CHO cells","IC50 (nM), antagonist mode (variable concentration) versus 5 nM PACAP1-27, calcium flux (FLIPR), PAC1-CHO cells","IMax (%), antagonist mode (variable concentration) versus 5 nM PACAP1-27; ( )=% inhibition at highest concentration","pA2 (nM), antagonist mode (fixed concentration), Gaddum/Schild EC50 shift of PACAP1-27 curves, calcium flux (FLIPR), PAC1-CHO cells"
HSDGIFTDSYSRYRKQMAVKKYLAAVL-NH2 [PACAP1-27],100%,,,
FTDSYSRYRKQMAVKKYLAAVLGKRYKQRVKNY-NH2 [PACAP6-38],,> 333 nM,78.8%,201 nM
